In the supplement of paper PMC11908140:

B1: library; numbered along this chain (parent)
chain: MRKPRAAVGSGHRKQAASQEGRQKHAKNNSQAKPSACDGLARQPEEVVLQASVSSYHLFRDVAEVTAFRGSLLSWYDQEKRDLPWRRRAEDEMDLDRRAYAVWVSEVMLQQTQVATVINYYTGWMQKWPTLQDLASASLEEVNQLWAGLGYYSRGRRLQEGARKVVEELGGHMPRTAETLQQLLPGVGRYTAGAIASIAFGQATGVVDGNVARVLCRVRAIGADPSSTLVSQQLWGLAQQLVDPARPGDFNQAAMELGATVCTPQRPLCSQCPVESLCRARQRVEQEQLLASGSLSGSPDVEECAPNTGQCHLCLPPSEPWDQTLGVVNFPRKASRKPPREESSATCVLEQPGALGAQILLVQRPNSGLLAGLWEFPSVTWEPSEQLQRKALLQELQRWAGPLPATHLRHLGEVVHTFSHIKLTYQVYGLALEGQTPVTTVPPGARWLTQEEFHTAAVSTAMKKVFRVYQGQQPGTCMGSKRSQVSSPCSRKKPRMGQQVLDNFFRSHISTDAHSLNSAAQ

Variants of: B1
Experiment: 8OG:A repair function score (normalized; synonymous = 0, nonsense = -1) (normalized log-likelihood score); higher = more repair activity (WT-like)
Conditions: with 8OG:A DNA repair reporter (GFP) in HEK-293 MUTYH KO cells
In short: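 Lentiviral MUTYH cDNA NNN codon-scan libraries in HEK-293 MUTYH knockout cells (10 pg/ml doxycycline) were co-transfected with an 8OG:A GFP repair reporter plus mCherry. At 72 h, viable mCherry+ cells were sorted into GFP+ (repair) and GFP− bins, three replicates per tile, then tile amplicons were sequenced. Per-tile Rosace fitness scores became a normalized repair function score anchored on synonymous and nonsense distributions. Synonymous medians were set to 0 and nonsense to -1; variants under 300 counts per million at the start were removed.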

8OG:A repair function score of substitutions, site by site:
G326: A -0.264 | R -0.176 | C -0.508 | P -0.475 | N -0.0169 | Q -0.123 | H -0.203 | L -0.422 | F -0.812 | I -0.411 | K -0.179 | D -0.344 | E -0.144 | M -0.634
D322: E 0.0971 | T -0.0961 | G -0.115 | L -0.0483 | I 0.0378 | V 0.0232 | W -0.0845 | S -0.0836 | Y -0.0375 | R -0.044 | M 0.0738 | A -0.0859 | H -0.147 | P -0.322 | K 0.00699 | Q -0.0416 | F -0.0672 | C -0.00563 | N -0.00231
L325: S -0.135 | D -0.204 | K -0.0528 | R -0.00254 | V -0.142 | E -0.08 | W -0.0969 | Q -0.141 | A -0.0759 | Y -0.173 | P -0.354 | C -0.0972 | N -0.136 | T -0.113 | G -0.16 | F -0.00965 | I -0.054 | M -0.0835 | H -0.0759
G309: E 0.02 | C -0.165 | V -0.0173 | W -0.149 | Q -0.105 | H 0.0104 | I -0.145 | M -0.0498 | K -0.0254 | R -0.0133 | Y -0.0852 | D -0.000739 | N -0.0326 | A -0.0354 | F 0.0213 | P -0.0923 | T -0.00848 | L -0.0772 | S -0.0582
H312: N -0.0171 | P -0.0124 | G -0.0894 | M -0.0518 | D -0.0268 | C -0.0404 | R -0.0802 | Y -0.0454 | V 0.078 | Q -0.0663 | W -0.103 | K 0.0995 | E 0.0205 | S -0.0172 | L 0.0443 | A -0.0906 | I 0.0886 | F -0.000263 | T -0.112
P316: E 0.0013 | C -0.0546 | A -0.176 | H -0.123 | L -0.126 | R -0.109 | M -0.238 | D -0.0567 | K -0.0182 | S -0.123 | Y -0.161 | F -0.198 | T -0.057 | N -0.154 | Q 0.0822 | G 0.00918 | W -0.331 | I -0.253 | V -0.121
L313: Q -0.328 | Y -0.104 | G -0.386 | E -0.601 | K -0.581 | P -0.504 | R -0.425 | C -0.146 | V -0.213 | S -0.292 | N -0.337 | D -0.363 | F -0.0503 | T -0.317 | H -0.299 | W -0.257 | M 0.00327 | A -0.4 | I -0.156
Q323: D 0.0164 | S -0.0829 | F -0.0491 | I -0.141 | N 0.061 | H -0.0776 | K -0.0269 | E -0.0118 | Y -0.013 | V -0.00203 | G -0.0264 | W -0.0368 | C -0.0398 | A -0.0752 | M -0.0348 | L -0.0798 | T 0.0271 | P -0.0158 | R -0.099
C311: Y -0.394 | P -0.312 | W -0.459 | T -0.566 | Q -0.575 | L -0.479 | F -0.55 | M -0.621 | I -0.59 | S -0.588 | V -0.634 | E -0.757 | K -0.39 | D -0.559 | A -0.544 | G -0.505 | R -0.481 | N -0.628 | H -0.471
P317: M 0.112 | G -0.0274 | Y -0.0115 | N 0.0467 | R 0.0296 | I -0.0482 | T -0.0225 | S 0.0611 | A -0.0112 | E -0.0108 | H -0.0747 | F -0.125 | L -0.0676 | K -0.197 | C -0.0347 | D -0.029 | W -0.205 | Q -0.121 | V 0.0214
C314: D -0.532 | R -0.482 | A -0.468 | W -0.679 | S -0.593 | Y -0.572 | G -0.468 | K -0.485 | L -0.616 | V -0.631 | T -0.575 | I -0.652 | F -0.764 | E -0.317 | M -0.46 | N -0.553
T308: V -0.00366 | Y -0.0509 | W 0.00192
W321: A -0.265 | L -0.0977 | C -0.313 | R -0.203 | S -0.257 | F -0.00541 | Q -0.205 | E -0.0643 | K -0.189 | V -0.0988 | Y -0.123 | D -0.53 | T -0.301 | I -0.25 | G -0.258 | P -0.252 | M -0.218
S318: F -0.00953 | P -0.26 | E 0.0139 | R -0.0645 | W 0.126 | N -0.0704 | L -0.0905 | T 0.116 | A 0.0892 | V -0.155 | D -0.0363 | Q -0.0273 | K -0.0665 | H -0.0534 | C -0.0155 | G -0.0532 | I 0.00356 | Y -0.0582
L315: M 0.0419 | E -0.305 | Y 0.0406 | D -0.206 | V -0.0921 | N -0.209 | F -0.147 | R -0.0162 | Q -0.193 | K -0.116 | H -0.308 | C -0.0705 | I -0.0865 | T -0.0895 | P -0.0779 | G -0.123 | W -0.187 | A -0.104 | S -0.102
Q310: G -0.0488 | S -0.0462 | F -0.0295 | L -0.0215 | I 0.0174 | R -0.0435 | C 0.0147 | Y -0.0597 | W -0.0199 | D 0.0119 | M -0.0144 | T 0.0177 | E -0.0263 | N 0.00143 | V -0.0252 | H -0.0309 | K -0.0227 | P -0.0353 | A -0.00829
E319: R 0.0109 | V -0.0112 | P -0.228 | A -0.00684 | C -0.02 | K -0.0997 | L 0.0108 | Y -0.0495 | T 0.123 | M -0.0278 | G -0.0752 | W -0.0166 | F -0.211 | H -0.0143 | D -0.0309 | I -0.0159 | Q 0.0567 | S 0.0138 | N -0.0746
P320: H 0.0683 | N -0.0442 | L -0.0348 | I -0.0716 | W -0.179 | E -0.11 | C -0.000958 | A -0.0474 | V -0.0867 | M -0.0571 | T -0.0175 | D -0.134 | S -0.0238 | Q -0.104 | R -0.0447 | Y -0.0806 | F -0.0659 | K -0.1 | G 0.00385
T324: D -0.162 | I -0.0894 | N -0.188 | M 0.0106 | F 0.00371 | G -0.0488 | Q -0.0692 | S 0.0429 | C -0.0556 | P -0.236 | V -0.0374 | Y -0.0755 | L -0.000813 | E -0.099 | W -0.0525 | A -0.0315 | H -0.0241 | R 0.0185 | K 0.056
